# The supplement of paper PMC6755084
# B1: F1*; the commonest letter at each place (parent)
# chain: GAGACCGCAACTGAAAAGTTGTTATCACTTGTCGTAAGACACTTTGGATGGGTTGAAGTTCTGCACGTAGAAGCAAAAGGC
# Variants of: B1
# Assay: fraction ligated after 30 min (ligated reads / total reads); higher = more ligase activity
# Settings: with F1*sub RNA substrate (template-directed ligation), 42 °C
# Method: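 Chip-synthesised pool of F1* ligase ribozyme variants (all single and double substitutions, single, double and triple deletions in the catalytic core and GAA bulge, plus designed variants) was transcribed with T7 and reacted as a pool with excess substrate F1*sub for 30 min at 42 C in 50 mM EPPS pH 8.5, 25 mM MgCl2. Ligated and unligated bands were separated by PAGE, barcoded by RT and deep sequenced; fraction ligated = ligated reads / total reads per variant, relative activity = FL / FL of wild type (0.826). Sequences are the DNA template of the ribozyme.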
row,Variant,fraction ligated
1,A24T T43A,0.678
2,A24T T43G,0.708
3,A24T T43C,0.621
4,A24C T32C,0.062
5,A24C T32A,0.0611
6,A24C T32G,0.144
7,T25A A39C,0.223
8,T25A A39G,0.751
9,T25A A39T,0.255
10,T23G T32A,0.858
11,T23G T32C,0.75
12,T23G T32G,0.842
13,T25A C28A,0.396
14,A24C T44C,0.563
15,A24C T44G,0.292
16,A24C T44A,0.759
17,A24C A41G,0.608
18,A24C A41T,0.614
19,A24C A41C,0.00606
20,A24T G34C,0.557
21,A24T G34T,0.76
22,A24T G34A,0.789
23,A24G G38T,0.745
24,A24G G38A,0.752

row,Variant,fraction ligated
1,A24G G38C,0.695
2,A24G A37C,0.796
3,A24G A37G,0.852
4,A24G A37T,0.764
5,A24G T29A,0.807
6,A24G T29G,0.811
7,A24G T29C,0.741
8,A24G C42T,0.802
9,A24G C42G,0.795
10,A24G C42A,0.796
11,A24G A39C,0.504
12,A24G A39T,0.664
13,A24G A39G,0.827
14,A24T T45C,0.0212
15,A24T T45A,0.0698
16,A24T T45G,0.0472
17,T25A,0.749
18,A24G C26A,0.711
19,A24G C26G,0.268
20,A24G C26T,0.728
21,A24G A56G,0.0845
22,A24G A56C,0.0669
23,A24G A56T,0.0729
24,A24T A27G,0.748

row,Variant,fraction ligated
1,A24T A27T,0.712
2,A24T A27C,0.737
3,A24T A37C,0.77
4,A24T A37G,0.792
5,A24T A37T,0.786
6,A24C G31A,0.0336
7,A24C G31C,0.038
8,A24C G31T,0.0308
9,A24G T30C,0.693
10,A24G T30A,0.745
11,A24G T30G,0.79
12,A24C G46A,0.335
13,A24C G46T,0.0441
14,A24C G46C,0.043
15,T23G G47A,0.79
16,T23G G47C,0.0263
17,T23G G47T,0.346
18,A24C G55A,0.649
19,A24C G55C,0.158
20,A24C G55T,0.0793
21,A24T G31C,0.0424
22,A24T G31A,0.0391
23,A24T G31T,0.0661
24,A24G A48G,0.762

row,Variant,fraction ligated
1,A24G A48C,0.729
2,A24G A48T,0.0442
3,A24C A27C,0.557
4,A24C A27T,0.668
5,A24C A27G,0.692
6,A24T G50C,0.295
7,A24T G50A,0.265
8,A24T G50T,0.535
9,A24C C28T,0.786
10,A24C C28A,0.727
11,A24C C28G,0.742
12,A24T A56G,0.0306
13,A24T A56T,0.0614
14,A24T A56C,0.0299
15,A24G G55T,0.629
16,A24G G55A,0.685
17,A24G G55C,0.18
18,A24T T35G,0.772
19,A24T T35A,0.808
20,A24T T35C,0.788
21,T23G G46T,0.759
22,T23G G46C,0.803
23,T23G G46A,0.809
24,A24T G55C,0.107

row,Variant,fraction ligated
1,A24T G55A,0.532
2,A24T G55T,0.18
3,T23G G50C,0.401
4,T23G G50A,0.633
5,T23G G50T,0.728
6,A24G C33A,0.746
7,A24G C33T,0.832
8,A24G C33G,0.785
9,A24T A48G,0.214
10,A24T A48C,0.499
11,A24T A48T,0.00859
12,A24G A36G,0.813
13,A24G A36C,0.833
14,A24G A36T,0.789
15,A24T T29G,0.716
16,A24T T29C,0.6
17,A24T T29A,0.789
18,T23G T35C,0.827
19,T23G T35G,0.86
20,T23G T35A,0.834
21,T23G T45A,0.795
22,T23G T45G,0.523
23,T23G T45C,0.781
24,A24C C42A,0.779

row,Variant,fraction ligated
1,A24C C42T,0.779
2,A24C C42G,0.775
3,T23G T49G,0.761
4,T23G T49C,0.748
5,T23G T49A,0.766
6,A24G A27G,0.701
7,A24G A27T,0.126
8,A24G A27C,0.776
9,A24T A57T,0.503
10,A24T A57G,0.729
11,A24T A57C,0.386
12,A24T T30C,0.297
13,A24T T30G,0.768
14,A24T T30A,0.67
15,A24C T49C,0.731
16,A24C T49G,0.806
17,A24C T49A,0.805
18,A24G C40G,0.802
19,A24G C40T,0.84
20,A24G C40A,0.731
21,A24C C40A,0.165
22,A24C C40G,0.348
23,A24C C40T,0.707
24,A24G G47C,0.0125

row,Variant,fraction ligated
1,A24G G47T,0.0352
2,A24G G47A,0.684
3,A24G A57T,0.728
4,A24G A57C,0.632
5,A24G A57G,0.762
6,A24G C28T,0.743
7,A24G C28A,0.719
8,A24G C28G,0.701
9,A24T C42A,0.743
10,A24T C42T,0.792
11,A24T C42G,0.769
12,A24G G31C,0.181
13,A24G G31T,0.331
14,A24G G31A,0.202
15,T23G T43C,0.747
16,T23G T43A,0.811
17,T23G T43G,0.821
18,A24C G34C,0.185
19,A24C G34T,0.648
20,A24C G34A,0.727
21,A24G G50C,0.257
22,A24G G50A,0.449
23,A24G G50T,0.491
